Measurements: US20260116991A1 (HAINAN SIMCERE ZAIMING PHARMACEUTICAL, published 2026)
Residue numbers refer to the chain shown, from its start. Values belong to the binder of their own block, whether it stands above or below them.

Legend:
[1] = target: T1, human GPC3-His protein (human, UniProt P51654 25-559); experiment: ELISA, coated human GPC3, antibody 10 nM;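 further: plate coated with antigen at 1 µg/mL, antibodies bound 2 h at 37 °C, detected via HRP-conjugated secondary antibody and TMB substrate, absorbance read after acid stop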
T1 construct: Bought protein; also called human GPC3 protein; not shown: His tag

[2] = target: T1, human GPC3-His protein; experiment: ELISA, coated human GPC3, antibody 0.1 nM;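 further: antigen coated on 96-well plates at 1 µg/mL, antibody bound 2 h at 37 °C, detected with HRP-labeled secondary antibody and TMB substrate, acid-stopped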
[3] = target: T1, human GPC3-His protein; experiment: ELISA, coated human GPC3, antibody 0.001 nM
[4] = target: T1, human GPC3-His protein; experiment: ELISA, coated human GPC3, antibody 100 nM;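 further: antibodies bound to antigen-coated 96-well plates (1 µg/mL), 2 h at 37 °C, detected with HRP-labelled secondary antibody and TMB substrate, absorbance read at 450 nm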
Experimental: (§1) The specific method is described as follows: The antigen protein was diluted with PBS to a final concentration of 1 μg/mL, and the diluent was added to a 96-well ELISA plate at 50 μL/well. The plate was sealed with a plastic film and incubated at 4° C. overnight, washed twice with PBS the next day, and a blocking solution [PBS+2% (w/w) BSA] was added for blocking at room temperature for 2 h. […] After incubation at 37° C. for 2 h, the plate was washed 3 times with PBS. A horseradish peroxidase (HRP)-labeled secondary antibody (purchased from Merck, Cat. No. AP113P) was added for incubation at 37° C. for 1 h, and the plate was washed 5 times with PBS. A TMB substrate was added at 50 μL/well for incubation at room temperature for 10 min, then a stop solution (1.0M HCl) was added at 50 μL/well. An ELISA plate reader (Multimode Plate Reader, EnSight, purchased from Perkin Elmer) was used to read OD_{450 nm} values, with results as shown in Table 4 to Table 6, FIG. 1A, FIG. 1B, and FIG. 1C.

[5] = target: T2, GPC3 endogenously expressed on HepG2 cells (UniProt P51654 25-554); experiment: FACS on HepG2 cells;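 further: flow cytometric binding of chimeric antibodies to cells, read as mean fluorescence intensity, EC50 obtained by curve fitting of the MFI data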
T2 construct: whole, on cells
Experimental: The desired cells were expanded to a logarithmic growth phase in a T-75 cell culture flask, the medium was removed by pipetting, and the cells were washed twice with a PBS buffer, and digested with trypsin. Then a complete medium was added to stop the digestion, and the cells were blown into a single cell suspension. After counting, the cells were centrifuged, and the cell pellet was resuspended with an FACS buffer (PBS+2% fetal bovine serum) to 2×10⁶ cells/mL. The cell resuspension solution was added to a 96-well FACS reaction plate at 50 μl/well, and a chimeric antibody sample to be tested was added at 50 μl/well for incubation at 4° C. for 1 h. […] After the plate was centrifuged and washed 3 times with a PBS buffer, 100 μl of the resulting solution was assayed and analyzed by FACS (FACS Canto™, purchased from BD Biosciences). Data analysis was performed by software (FlowJo) to obtain the mean fluorescence intensity (MFI) of the cells. Then, analysis was performed by software (GraphPad Prism8), data were fitted, and EC₅₀ values were calculated.

[6] = target: T1, human GPC3-His protein; experiment: ELISA, coated human GPC3, antibody 0.0001 nM
[7] = target: T1, human GPC3-His protein; experiment: ELISA, coated human GPC3, antibody 1 nM;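 further: antigen coated at 1 µg/mL on 96-well plates, antibody bound for 2 h at 37 °C, detected with HRP-labeled secondary antibody and TMB, absorbance read at 450 nm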
[8] = target: T3, human GPC3 on CHO-K1-human GPC3 cells (clone CHOK1-hGPC3.2B5) (human, UniProt P51654 25-554); experiment: FACS on CHOK1-hGPC3.2B5 cells;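 further: flow cytometry binding of chimeric antibodies to the cells, read out as mean fluorescence intensity, with the half-maximal concentration derived by curve fitting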
T3 construct: whole, on cells; Stably transfected CHO-K1 clone 2B5

[9] = target: T1, human GPC3-His protein; experiment: ELISA, coated human GPC3, antibody 0.01 nM;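 further: Plate-bound antigen coated at 1 µg/mL, antibody incubated 2 h at 37 °C, binding detected by HRP-conjugated secondary antibody with TMB substrate, read as absorbance at 450 nm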
Experimental: as §1

B5: F1.83.6 human-murine chimeric antibody (antibody, human IgG1, kappa, V domains shown)
VH: QVQLQQSGPELVKPGASVKISCKASGYAFSSSWMNWVKQRPGKGLEWIGRIYPGDGDTNYNGRFKGKATLTVDKSSSTAYMQLSSLTSEDSAVYFCARGGVFTMALDHWGQGTTLTVSS
VL: DIQMTQSPSSLSASLGGKVTITCKASQDINKYIAWYQHKPGKGPRLLIHYTSTLQPGIPSRFSGSGSGRDYSFSISNLEPEDIATYYCLQYDNLFTFGGGTKLEIKR
OD450 nm [1]: 1.19 OD450
OD450 nm [2]: 0.4 OD450
OD450 nm [3]: 0.1 OD450
OD450 nm [4]: 0.76 OD450
EC50 [5]: 0.87 nM
Max MFI [5]: 2340 MFI
OD450 nm [6]: 0.08 OD450
OD450 nm [7]: 0.83 OD450
EC50 [8]: 1.1 nM
Max MFI [8]: 10100 MFI
OD450 nm [9]: 0.17 OD450

B6: F1.73.9 human-murine chimeric antibody (antibody, human IgG1, kappa, V domains shown)
VH: QVQLKQSGAELVRPGASVKLSCKASGYTFTDYYINWVKQRPGQGLEWIARIYPGSGNTYYNEKFKGKATLTAEKSSSTAYMQFSSLTSEDSAVYFCACSTYYTMDYWGQGTSVTVSS
VL: QIVLTQSPAIMSASLGERVTMTCTASSGVSSSYLHWYQQKPGSSPKLWIYTTSNLASGVPARFSGSGSGTSYSLTISSMEAEDAATYYCHQYHRSPYTFGGGTKLEIKR
OD450 nm [1]: 1.74 OD450
OD450 nm [2]: 0.86 OD450
OD450 nm [3]: 0.11 OD450
OD450 nm [4]: 1.46 OD450
EC50 [5]: 0.25 nM
Max MFI [5]: 1880 MFI
OD450 nm [6]: 0.09 OD450
OD450 nm [7]: 1.33 OD450
EC50 [8]: 0.66 nM
Max MFI [8]: 8850 MFI
OD450 nm [9]: 0.23 OD450

Now from value to binder:

OD450 nm [1]: 1.75 OD450
OD450 nm [2]: 0.74 OD450
OD450 nm [3]: 0.12 OD450
OD450 nm [4]: 1.53 OD450
EC50 [5]: 0.33 nM
Max MFI [5]: 2810 MFI
OD450 nm [6]: 0.1 OD450
OD450 nm [7]: 1.64 OD450
EC50 [8]: 0.53 nM
Max MFI [8]: 9640 MFI
OD450 nm [9]: 0.19 OD450
B1: F1.118.4 human-murine chimeric antibody (antibody, human IgG1, kappa, V domains shown)
VH: QVQLQQSGAELAKPGASVKLSCKASGYSFTSYWIHWVKQRPGQGLEWIGYINPSSGYTKYNQKFKDKATLTADKSSSTAYMQLSSLTYEDSAVYYCARFGSSSFYFDYWGQGTTLTVSS
VL: DIVLTQSPASLAVSLGQRATISCRASQSVSSSSYSYMHWYQQKPGQPPKLLIKYASNLDSGVPARFSGSGSGTDFTLNIHPVEEEDTATYYCQHSWEIPAFGGGTKLEIKR

OD450 nm [1]: 1.19 OD450
OD450 nm [2]: 0.25 OD450
OD450 nm [3]: 0.09 OD450
OD450 nm [4]: 0.66 OD450
EC50 [5]: 2.9 nM
Max MFI [5]: 2300 MFI
OD450 nm [6]: 0.08 OD450
OD450 nm [7]: 0.68 OD450
EC50 [8]: 2.04 nM
Max MFI [8]: 9600 MFI
OD450 nm [9]: 0.11 OD450
B2: F1.92.17 human-murine chimeric antibody (antibody, human IgG1, kappa, V domains shown)
VH: EVQLQQSGPELVKPGASVKMSCKASGYTFTDYNMHWVRQSHGKSLEWIGYINPNNGDTIYNQNFKGKATLTVNKSSSTAYMELRSLTSEDSAVYYCSRTITYYYSMDYWGPGTSVTVSS
VL: QIVLTQSPALMSASPGEKVTMTCSASSSVSYMYWYQQKPRSSPKPWIYLTSNLASGVPARFSGSGSGTSYSLTISSMEAEDAATYYCQQWSSNPLTFGAGTKLELKR

OD450 nm [1]: 2.46 OD450
OD450 nm [2]: 1.61 OD450
OD450 nm [3]: 0.14 OD450
OD450 nm [4]: 2.7 OD450
EC50 [5]: 1.13 nM
Max MFI [5]: 1880 MFI
OD450 nm [6]: 0.1 OD450
OD450 nm [7]: 2.41 OD450
EC50 [8]: 1.08 nM
Max MFI [8]: 9230 MFI
OD450 nm [9]: 0.41 OD450
B3: F1.111.11 human-murine chimeric antibody (antibody, human IgG1, kappa, V domains shown)
VH: EVQLQQSGPELVKPGASVKISCKASGYTFTDYYMNWVKQSHGKSLEWIGDIYPNNGDTTYNQRFKGKATLTVDKSSSTAYMELRSLASEDSAVYYCACPYNNPFGYWGQGTLVTVSA
VL: DVVMTQTPLSLPVSLGDQASISCRSSQSLVHSNGNTYLHWYLQKPGQSPKLLIYKVSNRFSGVPDRFSGSGSGTDFTLKISRVEAEDLGVYFCSQSTHVPWTFGGGTKLEIKR

OD450 nm [1]: 1.9 OD450
OD450 nm [2]: 0.83 OD450
OD450 nm [3]: 0.11 OD450
OD450 nm [4]: 2.01 OD450
EC50 [5]: 0.18 nM
Max MFI [5]: 2460 MFI
OD450 nm [6]: 0.09 OD450
OD450 nm [7]: 1.83 OD450
EC50 [8]: 0.33 nM
Max MFI [8]: 9980 MFI
OD450 nm [9]: 0.2 OD450
B4: F1.115.8 human-murine chimeric antibody (antibody, human IgG1, kappa, V domains shown)
VH: EVQLQQSGPELVKPGASVKMSCKASGYTFTEYYMHWVKQSHGKSLEWIGYIYPNNGGNGYNQKFKGKATLTVDKSSSTAYMGLRSLTSEDSAVYYCVRGYYSNWYFDVWGTGTTVTVSS
VL: B3 VL with V3L, L29I, N35K, H39E, F92Y, S94F, S96G, T97S, W101F, G105S
